Values of other authors in article PMC12405408.
pKd: −log10 of the molar value.

Biological target: CaSR (Homo sapiens) (UniProt P41180)
Chain of UniProt P41180 (P41180 20-1078): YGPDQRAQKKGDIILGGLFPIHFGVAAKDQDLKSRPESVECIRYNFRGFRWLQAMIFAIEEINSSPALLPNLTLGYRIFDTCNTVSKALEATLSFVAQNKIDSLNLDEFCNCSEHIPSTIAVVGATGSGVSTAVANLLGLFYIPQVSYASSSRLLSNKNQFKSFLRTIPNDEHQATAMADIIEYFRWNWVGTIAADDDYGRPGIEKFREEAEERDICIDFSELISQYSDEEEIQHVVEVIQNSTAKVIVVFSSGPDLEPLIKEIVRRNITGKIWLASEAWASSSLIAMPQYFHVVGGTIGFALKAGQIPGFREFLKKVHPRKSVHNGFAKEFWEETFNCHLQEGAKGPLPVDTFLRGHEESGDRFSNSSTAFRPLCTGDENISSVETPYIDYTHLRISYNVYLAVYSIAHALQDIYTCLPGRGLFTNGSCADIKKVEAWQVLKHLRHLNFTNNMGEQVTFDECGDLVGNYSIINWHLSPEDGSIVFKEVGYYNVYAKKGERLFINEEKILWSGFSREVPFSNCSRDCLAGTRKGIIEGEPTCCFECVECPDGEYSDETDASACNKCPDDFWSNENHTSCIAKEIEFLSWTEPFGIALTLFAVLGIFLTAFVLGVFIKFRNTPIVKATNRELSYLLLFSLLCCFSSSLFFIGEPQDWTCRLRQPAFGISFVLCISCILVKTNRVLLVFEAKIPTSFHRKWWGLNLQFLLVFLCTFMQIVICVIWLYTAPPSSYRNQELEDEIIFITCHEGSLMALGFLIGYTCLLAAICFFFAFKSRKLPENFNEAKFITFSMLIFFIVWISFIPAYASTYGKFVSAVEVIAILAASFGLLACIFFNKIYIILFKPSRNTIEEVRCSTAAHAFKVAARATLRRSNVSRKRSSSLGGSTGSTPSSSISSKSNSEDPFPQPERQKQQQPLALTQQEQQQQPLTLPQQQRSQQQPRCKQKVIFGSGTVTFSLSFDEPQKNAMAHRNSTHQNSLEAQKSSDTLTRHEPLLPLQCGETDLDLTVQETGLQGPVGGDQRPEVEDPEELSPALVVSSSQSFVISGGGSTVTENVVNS

pKd: 8.49
Substance: EWVPVTK peptide
